In patent US20170021005A1:

Biological target: PltB pentamer (B subunit of typhoid toxin, as in the crystal structure) (Salmonella enterica serovar Typhi)
Assay: interface analysis of the crystal structure (computed)

## PltA (subunit of typhoid toxin, as in the crystal structure) (enzyme)
  buried surface: 1660 Å^2
  ΔiG (printed "ÅiG"): -74.1 kJ/mol
